# Reference: paper PMC3176505 (Biochemistry, 2009)
# Tests used:
# [1] = system: CCCCCC1CCCC(=O)O1; assay: purified protein; conditions: pH 8.3
# [2] = system: CCCCC1CCCC(=O)O1; assay: purified protein; conditions: pH 8.3
Substance,Km [1],kcat/Km [1],Km [2],kcat/Km [2]
Dr0930 (Deinococcus radiodurans R1 = ATCC 13939 = DSM 20539),80 ± 10 µM,200000 ± 20000 M⁻¹ s⁻¹,100 ± 20 µM,420000 ± 70000 M⁻¹ s⁻¹
Dr0930 (Deinococcus radiodurans R1 = ATCC 13939 = DSM 20539; Y28F),–,–,100 ± 20 µM,270000 ± 40000 M⁻¹ s⁻¹
Dr0930 (Deinococcus radiodurans R1 = ATCC 13939 = DSM 20539; Y97F),–,–,200 ± 20 µM,1700 ± 100 M⁻¹ s⁻¹
Dr0930 (Deinococcus radiodurans R1 = ATCC 13939 = DSM 20539; Y98F),–,–,400 ± 20 µM,18000 ± 2000 M⁻¹ s⁻¹
